Reference: article PMC8476121, “Structural insights into the activation of human calcium-sensing receptor” (eLife, 2021)

Tests used:
[1] = biological target: the molecule itself; assay: cryo-EM structure; inactive state: CaSR in GDN/CHS micelles with NPS-2143 (NAM), 1 mM CaCl2 and a 1.2 molar excess of NB-2D11
[2] = biological target: T1, CaSR ECD (extracellular domain of human calcium-sensing receptor) (Homo sapiens, UniProt P41180); assay: SPR; Biacore T200; CaSR ECD coupled to the chip by amino-carboxyl coupling; nanobody flowed at a series of concentrations (30 ul/min, association 90 s, dissociation 220 s); 25 C; 20 mM HEPES pH 7.4, 150 mM NaCl, 0.05% Tween 20; details: both partners purified
T1 construct: human calcium-sensing receptor (CaSR), extracellular domain (VFT domain and cysteine rich domain); crystal structures of CaSR ECD (PDB 5K5T, 5K5S; Geng et al., 2016) are cited but not tied to this construct
T1 sequence (P41180 whole entry, looked up, the tested form may be a part): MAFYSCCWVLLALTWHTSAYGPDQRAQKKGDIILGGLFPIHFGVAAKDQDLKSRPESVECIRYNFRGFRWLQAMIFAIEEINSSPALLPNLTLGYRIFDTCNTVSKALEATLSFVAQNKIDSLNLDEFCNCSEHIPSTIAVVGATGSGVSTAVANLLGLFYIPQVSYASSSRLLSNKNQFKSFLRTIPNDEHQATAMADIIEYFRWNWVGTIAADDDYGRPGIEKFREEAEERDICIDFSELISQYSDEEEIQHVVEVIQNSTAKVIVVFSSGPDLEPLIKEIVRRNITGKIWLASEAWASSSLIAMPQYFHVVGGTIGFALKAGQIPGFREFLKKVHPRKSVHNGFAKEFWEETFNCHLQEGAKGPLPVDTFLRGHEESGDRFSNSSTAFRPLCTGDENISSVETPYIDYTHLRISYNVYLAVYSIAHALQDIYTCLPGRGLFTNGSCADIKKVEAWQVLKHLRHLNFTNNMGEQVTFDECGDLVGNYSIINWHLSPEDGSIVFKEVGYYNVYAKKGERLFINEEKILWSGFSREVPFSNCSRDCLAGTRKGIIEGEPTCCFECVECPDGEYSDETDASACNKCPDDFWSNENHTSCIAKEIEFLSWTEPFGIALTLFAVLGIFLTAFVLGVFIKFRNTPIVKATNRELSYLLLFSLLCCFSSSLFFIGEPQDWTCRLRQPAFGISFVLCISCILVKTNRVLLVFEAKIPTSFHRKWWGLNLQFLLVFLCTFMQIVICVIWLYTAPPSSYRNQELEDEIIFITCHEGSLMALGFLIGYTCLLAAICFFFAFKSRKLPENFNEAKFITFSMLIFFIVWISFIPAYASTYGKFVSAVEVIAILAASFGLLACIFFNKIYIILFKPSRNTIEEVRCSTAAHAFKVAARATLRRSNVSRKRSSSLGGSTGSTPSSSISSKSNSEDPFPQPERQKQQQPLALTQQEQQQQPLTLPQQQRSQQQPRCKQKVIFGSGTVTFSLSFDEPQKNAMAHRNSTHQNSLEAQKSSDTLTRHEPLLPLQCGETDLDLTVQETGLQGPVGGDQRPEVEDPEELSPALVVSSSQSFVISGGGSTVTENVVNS

B1: Human calcium-sensing receptor CaSR (1-870) with C-terminal Flag tag (receptor, UniProt P41180-1 20-870, looked up)
chain: YGPDQRAQKKGDIILGGLFPIHFGVAAKDQDLKSRPESVECIRYNFRGFRWLQAMIFAIEEINSSPALLPNLTLGYRIFDTCNTVSKALEATLSFVAQNKIDSLNLDEFCNCSEHIPSTIAVVGATGSGVSTAVANLLGLFYIPQVSYASSSRLLSNKNQFKSFLRTIPNDEHQATAMADIIEYFRWNWVGTIAADDDYGRPGIEKFREEAEERDICIDFSELISQYSDEEEIQHVVEVIQNSTAKVIVVFSSGPDLEPLIKEIVRRNITGKIWLASEAWASSSLIAMPQYFHVVGGTIGFALKAGQIPGFREFLKKVHPRKSVHNGFAKEFWEETFNCHLQEGAKGPLPVDTFLRGHEESGDRFSNSSTAFRPLCTGDENISSVETPYIDYTHLRISYNVYLAVYSIAHALQDIYTCLPGRGLFTNGSCADIKKVEAWQVLKHLRHLNFTNNMGEQVTFDECGDLVGNYSIINWHLSPEDGSIVFKEVGYYNVYAKKGERLFINEEKILWSGFSREVPFSNCSRDCLAGTRKGIIEGEPTCCFECVECPDGEYSDETDASACNKCPDDFWSNENHTSCIAKEIEFLSWTEPFGIALTLFAVLGIFLTAFVLGVFIKFRNTPIVKATNRELSYLLLFSLLCCFSSSLFFIGEPQDWTCRLRQPAFGISFVLCISCILVKTNRVLLVFEAKIPTSFHRKWWGLNLQFLLVFLCTFMQIVICVIWLYTAPPSSYRNQELEDEIIFITCHEGSLMALGFLIGYTCLLAAICFFFAFKSRKLPENFNEAKFITFSMLIFFIVWISFIPAYASTYGKFVSAVEVIAILAASFGLLACIFFNKIYIILFKPSRNTIE
notes: signal peptide in the construct; human calcium-sensing receptor (CaSR), residues 1-870, cDNA NM_000388.4; Flag printed as DYKDDDD; Cloned into a modified pEG BacMam vector; also called full-length CaSR; hCaSR; source: HEK293 GnTI- cells infected with baculovirus (BacMam), purified (anti-Flag M2, Mono Q, Superose 6) in GDN/CHS
B1: binds [1].

B2: NB-2D11 (camel nanobody) (VHH)
VHH: QVQLQESGGGSVQAGGSLRLSCAASGFPISTYDMGWFRQAPGKEREGVVGITDSFSIKYEDSVKGRFTISRDNAKNALYLQMNSLKPEDTGMYYCAAGDARWSLLLRAEQYNYWGQGTQVTVSS
notes: Cloned in pMECS with a PelB signal peptide; HA tag followed by 6x histidine tag at the C-terminus; Isolated from a phage display library of camels immunised with human CaSR; also called NB-D211; source: E. coli TOP10F' periplasm, purified (Ni-NTA, Superdex 75)
Binder B2 has a Kd [2] of 0.24 nM.
